Assay results from patent US20170183640A1 (WISCONSIN ALUMNI RESEARCH FOUNDATION, published 2017).
Numbering of substitutions follows the chain as printed. Names and notes keep the numbering of the source.

B1: φW39 ΔN47 Ref (enzyme)
chain: DRRIAKQKERPPASKTRKSAVKIKSRGLKGRTPTAEERTIANALGTLPCIACYMHGVISEEVSLHHISGRTAPGCHKKQLPLCRWHHQHAAPAEVREKYPWLVPVHADGVVGGKKEFTLLNKSEMELLADAYEMANIMH
notes: Plasmid pEAW865; The construct starts with a Met codon from the NdeI site
B2: P1 ΔN76 Ref (enzyme)
chain: GRTPTAEERRIANALGALPCIACYMHGVISNEVSLHHIAGRTAPGCHKKQLPLCRWHHQHAAPAEVREKYPWLVPVHADGVVGGKKEFTLLNKSEMELLADAYEMANIMH
notes: Purified as in Gruenig et al 2011; The range 77-186 is derived from the name ΔN76
B3: P1 wild type Ref (bacteriophage P1 full length Ref protein) (enzyme)
chain: MKTIEQKIEQCRKWQKAARERAIARQREKLADPVWRESQYQKMRDTLDRRIAKQKERPPASKTRKSAVKIKSRGLKGRTPTAEERRIANALGALPCIACYMHGVISNEVSLHHIAGRTAPGCHKKQLPLCRWHHQHAAPAEVREKYPWLVPVHADGVVGGKKEFTLLNKSEMELLADAYEMANIMH
notes: Full-length native protein purified from E. coli; The dimer is reported to be held by a Cys11 disulfide bond
B4: φW39 R11C Ref (enzyme)
chain: B3 chain with I8L, K13E, V34A, T46S, L47I, R86T, A93T, N107E, A115S
notes: Plasmid pEAW933; Full-length variant
B5: φW39 wild type Ref (φW39 phage full length Ref protein) (enzyme)
chain: B3 chain with I8L, C11R, K13E, V34A, T46S, L47I, R86T, A93T, N107E, A115S
notes: Full-length native protein
B6: φW39 ΔN21 Ref (enzyme)
chain: AIARQREKLADPAWRESQYQKMRDSIDRRIAKQKERPPASKTRKSAVKIKSRGLKGRTPTAEERTIANALGTLPCIACYMHGVISEEVSLHHISGRTAPGCHKKQLPLCRWHHQHAAPAEVREKYPWLVPVHADGVVGGKKEFTLLNKSEMELLADAYEMANIMH
notes: Plasmid pEAW886; The construct starts with a Met codon from the NdeI site

How the values were obtained:
[1] = target: the molecule itself; assay: gel filtration (Superdex 200), self-association, Example 4
[2] = target: the molecule itself; assay: DSG crosslinking, SDS-PAGE, self-association
Description: (§1) The crosslinking covalently traps Ref in oligomeric states. […] Cys11 is responsible for dimerization of the P1 Ref protein.
Upon amino acid sequence analysis of P1 WT and φW39 WT, we noticed that P1 Ref contains Cys11 while φW39 Ref contains Arg11.

[3] = target: the molecule itself; assay: ultracentrifugation, self-association (dimerization)
[4] = target: the molecule itself; assay: DSG crosslinking, SDS-PAGE (FIG. 7), self-association
Description: as §1
In order to determine the role of Cys11, a φW39 R11C variant was constructed and purified. […] The truncation variants' monomeric state was verified by analytical size exclusion (FIG. 9).

Protein	apparent molecular mass by gel filtration [1]	further results
B1	27.6 kDa	–
B2	–	binding result [2]: no binding
B3	–	binding result [3]: binds
B4	–	binding result [4]: binds
B5	35 kDa	–
B6	33.6 kDa	–
